Data: patent US6793917 (SHIONOGI, dated 2004)

Assays:
[1] = target: T1, receptor for TARC on Jurkat cell and certain other T-cells; assay: displacement of 2 nM 125I-labeled TARC from Jurkat cells by unlabeled TARC, Scatchard analysis
T1 construct: also called TARC receptor; receptors for TARC

[2] = target: T2, CCR4 expressed on 293/EBNA-1 cells (human, UniProt P51679 1-360); assay: displacement of 1 nM TARC-SEAP from 4x10^5 293/EBNA-1 cells expressing CCR4 by unlabeled TARC
T2 construct: whole, on cells; also called CCR4 receptor
T2 sequence (looked up): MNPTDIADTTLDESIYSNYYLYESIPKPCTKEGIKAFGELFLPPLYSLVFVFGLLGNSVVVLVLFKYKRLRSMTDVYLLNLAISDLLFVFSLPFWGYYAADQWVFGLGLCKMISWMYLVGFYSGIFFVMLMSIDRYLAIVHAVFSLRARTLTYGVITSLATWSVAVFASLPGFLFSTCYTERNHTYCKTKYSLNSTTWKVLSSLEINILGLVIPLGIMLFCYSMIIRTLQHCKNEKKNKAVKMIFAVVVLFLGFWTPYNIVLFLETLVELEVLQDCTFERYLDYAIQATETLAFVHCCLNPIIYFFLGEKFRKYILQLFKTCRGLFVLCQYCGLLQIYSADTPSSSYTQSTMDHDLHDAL
Method: The binding experiment was conducted in 200 μl RPMI-1640 containing 20 mM HEPES (pH 7.4), 1% BSA, and 0.02% sodium azide. […] Cells were washed and dissolved in 50 μl 10 mM Tris-HCl (pH 8.0) containing 1% Triton X-100, and treated at 65° C. for 10 minutes to inactivate the phosphatase originated from the cells. After centrifugation, the AP activity in 25 μl of the supernatant was measured. The nonspecific binding was measured using 1 nM SEAP.

[3] = target: T3, Duffy antigen/receptor for chemokine (DARC) on erythrocytes (UniProt Q16570 1-336); assay: displacement of 0.66 nM 125I-labeled TARC from 10^8 erythrocytes by unlabeled TARC, Scatchard analysis
T3 construct: whole, on cells
T3 sequence (looked up): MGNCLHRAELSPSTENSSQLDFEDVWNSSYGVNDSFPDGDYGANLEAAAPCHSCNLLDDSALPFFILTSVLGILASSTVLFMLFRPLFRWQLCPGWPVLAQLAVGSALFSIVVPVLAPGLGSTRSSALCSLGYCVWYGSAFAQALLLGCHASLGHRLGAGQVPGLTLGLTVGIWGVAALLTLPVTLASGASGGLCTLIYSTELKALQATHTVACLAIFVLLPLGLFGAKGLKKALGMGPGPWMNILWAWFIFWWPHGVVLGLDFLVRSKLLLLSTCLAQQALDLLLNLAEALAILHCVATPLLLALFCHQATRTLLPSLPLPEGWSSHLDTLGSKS
Text: It has been known that erythrocyte expresses a Duffy antigen/receptor for chemokine (DARC) to which various chemokines can be bound.

[4] = target: T1, receptor for TARC on Jurkat cell and …; assay: saturation binding of 125I-labeled TARC to Jurkat cells, Scatchard analysis
Text: To determine the binding constant and the number of receptor, conditions under which the binding reaches equilibrium were examined.

B1: human TARC (Thymus and Activation-Regulated Chemokine), mature secreted form, expressed in and purified from insect cells (ligand)
chain: ARGTNVGRECCLEYFKGAIPLRKLKTWYQTSEDCSRDAIVFVTVQGRAICSDPNNKRVKNAVKYLQSLERS
notes: also called hTARC; unlabeled TARC
[1]
  Kd: 2.1 nM
[2]
  IC50: ~3 nM
[3]
  Kd: 17 nM

B2: 125I-labeled human TARC (ligand)
chain: ARGTNVGRECCLEYFKGAIPLRKLKTWYQTSEDCSRDAIVFVTVQGRAICSDPNNKRVKNAVKYLQSLERS
modifications: 125I label introduced with 125I-labeled Bolton-Hunter reagent (site not stated)
notes: specific activity 81.6 uCi/ug
[4]
  Kd: 2.1 nM
